# Biological target: H1.2 2-108 (UniProt P16403 2-108)
# Experiment: fluorescence polarization
# Sequence of H1.2 2-108 (P16403 2-108): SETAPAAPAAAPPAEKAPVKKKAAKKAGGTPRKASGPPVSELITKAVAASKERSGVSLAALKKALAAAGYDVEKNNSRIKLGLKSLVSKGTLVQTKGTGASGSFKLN
binder,measurement,value
fluorescein-labeled 30-mer DNA (printed strands are 27 nt) (dsDNA) DNA 1: ATCATTAATATGAATTCGCCACATGCA DNA 2: TGCATGTGGCGAATTCATATTAATGAT,binding signal,50 fold lower affinity than full-length H1.2
